Where no end group is shown, it is not given here.
What was measured:
EBNA2/CBF1 complex = target: T1, EBNA2/CBF1 complex (Homo sapiens, UniProt Q06330); assay: EMSA competition of synthetic peptides for EBNA2/CBF1 complex formation; format: binding; conditions: for competition for EBNA2/CBF1 complex formation in EMSA, in words: 1.25-10 μg synthetic peptide
T1 construct: and heparin-agarose purified CBF1; endogenous in cells; host or cells: CBF1: heparin-agarose purified cell protein; EBNA2 252-425: in vitro translation
T1 sequence (Q06330 whole entry, one chain of several): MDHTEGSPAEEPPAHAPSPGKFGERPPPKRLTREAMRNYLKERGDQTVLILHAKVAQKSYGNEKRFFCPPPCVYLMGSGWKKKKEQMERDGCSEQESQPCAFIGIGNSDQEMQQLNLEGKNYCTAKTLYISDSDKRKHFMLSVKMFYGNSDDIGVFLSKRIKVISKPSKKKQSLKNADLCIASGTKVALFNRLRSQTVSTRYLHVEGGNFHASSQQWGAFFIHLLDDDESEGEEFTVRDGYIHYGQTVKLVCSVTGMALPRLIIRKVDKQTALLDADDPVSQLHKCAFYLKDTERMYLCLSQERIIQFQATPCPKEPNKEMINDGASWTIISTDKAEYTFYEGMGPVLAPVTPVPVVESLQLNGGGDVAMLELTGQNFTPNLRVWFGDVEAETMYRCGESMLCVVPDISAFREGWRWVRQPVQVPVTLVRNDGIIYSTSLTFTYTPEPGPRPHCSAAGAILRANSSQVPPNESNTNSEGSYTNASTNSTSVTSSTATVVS
Procedure: FIG. 8 is an EMSA that examines the ability of synthetic peptides representing CR5 (PEP.CR5), CR6 (PEP.CR6), mutant CR6 (CR6WW323SR) (PEP.CR6WW>SR), CR7 (PEP.CR7), and a control, nonconserved region comprising amino acids 265-279 (CONTROL) to compete for EBNA2/CBF1 complex formation. Increasing amounts of peptide (i.e., 1.25, 2.5, 5.0 and 10 μg; black triangles) were added to the binding reactions containing the Cp CBF1 binding site probe, in vitro translated wild-type EBNA2 (i.e., corresponding to amino acids 252-425) and heparin-agarose purified CBF1.
CR6 could perform this function by generating a specific secondary or tertiary structure that facilitates interaction (e.g., a lock and key model of interaction). Alternately, CR6 could mediate direct protein-protein contacts, perhaps through the formation of a tryptophan bridge (Corina et al., Virology, 197, 391-396 (1993)). To further examine the proposed contributions of CR5, CR6, and CR7 in EBNA2 interaction, and to probe the role of CR6, five 10-15 amino acid peptides were synthesized. The peptides were tested for their ability to compete with a full length EBNA2 protein for complex formation with CBF1. The relative location of the peptides in the EBNA2 protein is illustrated in FIG. 2, and the exact position of the sequences can be determined from FIG. 5. The peptides are as follows: a control peptide comprised of amino acids 265-279 (i.e., Ser Thr Pro Asn Asp Pro Asp Ser Pro Glu Pro Xaa Ser Pro Thr [SEQ ID NO:8], wherein Xaa is Arg or Pro); a CR5 peptide comprised of amino acids 299-314 (i.e., Ala Pro Ala Gln Pro Pro Pro Gly Ile Ile Asn Asp Gln Gln Leu [SEQ ID NO:9]); a CR6 peptide comprised of amino acids 318-327 (i.e., Pro Ser Gly Pro Pro Trp Trp Pro Pro Ile [SEQ ID NO:6]); a CR6 WW323SR peptide comprised of amino acids 318-327 (i.e., Pro Ser Gly Pro Pro Ser Arg Pro Pro Ile [SEQ ID NO:10]); and a CR7 peptide comprised of amino acids 380-391 (i.e., Pro Ser Met Pro Glu Leu Ser Pro Val Leu Gly Leu [SEQ ID NO:11]).
Increasing amounts of the peptides were added to the binding reaction mixtures which were then analyzed using an EMSA (FIG. 8). […] It is known that EBNA2 can interact with CBF1 in solution (Grossman et al., supra; Henkel et al., supra). A typical binding reaction presumably contains both DNA-bound and non-DNA-bound EBNA2/CBF1 complexes.

[1] = target: T2, EBNA2 interaction with CBF1 in solution (Homo sapiens, UniProt Q06330); assay: GST affinity assay with GST-EBNA2 (252-425) and 35S-labeled in vitro translated CBF1; format: binding
T2 construct: made in house; host or cells: CBF1: in vitro translation
T2 sequence (Q06330 whole entry): as the sequence (Q06330 whole entry, one chain of several) above

| Substance | competition for EBNA2/CBF1 complex formation in EMSA, in words (EBNA2/CBF1 complex) | competition for EBNA2 interaction with CBF1 in GST affinity assay, in words [1] | EBNA2/CBF1 complex eliminated by competition (EBNA2/CBF1 complex; 1.25-10 μg synthetic peptide added to binding reaction) |
| --- | --- | --- | --- |
| APAQPPPGIINDQQL [CR5 peptide] | Neither the control peptide nor the peptides spanning CR5 or CR7 had any effect on the formation of the EBNA2/CBF1 complex | – | – |
| PSGPPSRPPI [CR6 WW323SR peptide] | abolished the ability of the peptide to compete with EBNA2 for interaction with CBF1 | abolished the ability of the peptide to compete with EBNA2 for interaction with CBF1 | – |
| PSGPPWWPPI [CR6 peptide] | regenerating the DNA-bound CBF1 complex to the levels seen in the absence of added EBNA2 | could compete for EBNA2 interaction with CBF1 in solution | 40% |
| Pro Ser Met Pro Glu Leu Ser Pro Val Leu Gly Leu [CR7 peptide] | Neither the control peptide nor the peptides spanning CR5 or CR7 had any effect on the formation of the EBNA2/CBF1 complex | – | – |
| Ser Thr Pro Asn Asp Pro Asp Ser Pro Glu Pro Xaa Ser Pro Thr [control peptide, reference compound] | Neither the control peptide nor the peptides spanning CR5 or CR7 had any effect on the formation of the EBNA2/CBF1 complex | – | – |

Reference: patent publication US6495144B2, “EBNA2 peptides and methods of using same” (Johns Hopkins University School of Medicine, priority 1996, dated 2002)
